# According to publication PMC12572195 (Nature Communications, 2025):
# Target: SPT6 (human, UniProt Q7KZ85 1-1726)
# Assay: cell-based or functional assay
binder,measurement,value
SETD2 (residues 1446-2564) (domain or fragment) GPSCVMDDFRDPQRWKECAKQGKMPCYFDLIEENVYLTERKKNKSHRDIKRMQCECTPLSKDERAQGEIACGEDCLNRLLMIECSSRCPNGDYCSNRRFQRKQHADVEVILTEKKGWGLRAAKDLPSNTFVLEYCGEVLDHKEFKARVKEYARNKNIHYYFMALKNDEIIDATQKGNCSRFMNHSCEPNCETQKWTVNGQLRVGFFTTKLVPSGSELTFDYQFQRYGKEAQKCFCGSANCRGYLGGENRVSIRAAGGKMKKERSRKKDSVDGELEALMENGEGLSDKNQVLSLSRLMVRIETLEQKLTCLELIQNTHSQSCLKSFLERHGLSLLWIWMAELGDGRESNQKLQEEIIKTLEHLPIPTKNMLEESKVLPIIQRWSQTKTAVPPLSEGDGYSSENTSRAHTPLNTPDPSTKLSTEADTDTPKKLMFRRLKIISENSMDSAISDATSELEGKDGKEDLDQLENVPVEEEEELQSQQLLPQQLPECKVDSETNIEASKLPTSEPEADAEIEPKESNGTKLEEPINEETPSQDEEEGVSDVESERSQEQPDKTVDISDLATKLLDSWKDLKEVYRIPKKSQTEKENTTTERGRDAVGFRDQTPAPKTPNRSRERDPDKQTQNKEKRKRRSSLSPPSSAYERGTKRPDDRYDTPTSKKKVRIKDRNKLSTEERRKLFEQEVAQREAQKQQQQMQNLGMTSPLPYDSLGYNAPHHPFAGYPPGYPMQAYVDPSNPNAGKVLLPTPSMDPVCSPAPYDHAQPLVGHSTEPLSAPPPVPVVPHVAAPVEVSSSQYVAQSDGVVHQDSSVAVLPVPAPGPVQGQNYSVWDSNQQSVSVQQQYSPAQSQATIYYQGQTCPTVYGVTSPYSQTTPPIVQSYAQPSLQYIQGQQIFTAHPQGVVVQPAAAVTTIVAPGQPQPLQPSEMVVTNNLLDLPPPSPPKPKTIVLPPNWKTARDPEGKIYYYHVITRQTQWDPPTWESPGDDASLEHEAEMDLGTPTYDENPMKASKKPKTAEADTSSELAKKSKEVFRKEMSQFIVQCLNPYRKPDCKVGRITTTEDFKHLARKLTHGVMNKELKYCKNPEDLECNENVKHKTKEYIKKYMQKFGAVYKPKEDTELE,"co-transcriptional methylation assay (3H activity) with SETD2 Construct 4 (includes the complete SBR, lacks the SRI domain)",~50 % of WT
